In assay [1] the target is T1, cynomolgus monkey FCRL1 (XP_015310712), transiently expressed on 293T cells (cynomolgus monkey).
T1 chain: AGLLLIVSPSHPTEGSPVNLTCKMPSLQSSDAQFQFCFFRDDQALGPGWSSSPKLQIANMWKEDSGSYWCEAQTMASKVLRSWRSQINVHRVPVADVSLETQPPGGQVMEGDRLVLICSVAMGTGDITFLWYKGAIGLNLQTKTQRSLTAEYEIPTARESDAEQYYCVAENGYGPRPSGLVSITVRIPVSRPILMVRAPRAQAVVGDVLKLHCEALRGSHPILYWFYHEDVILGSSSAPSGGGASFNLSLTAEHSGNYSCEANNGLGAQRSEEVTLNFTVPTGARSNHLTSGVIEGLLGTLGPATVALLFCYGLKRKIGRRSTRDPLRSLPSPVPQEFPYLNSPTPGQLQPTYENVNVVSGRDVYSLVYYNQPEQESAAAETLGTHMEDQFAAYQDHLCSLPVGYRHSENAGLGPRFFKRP
The experiment in a line: flow cytometry on 293T cells transiently expressing cynomolgus monkey FCRL1. Here is the method:
An antigen-specific reactivity of the novel anti-human FCRL1 mouse antibody obtained in Example 4 was evaluated by Flow Cytometry (FCM). FCRL1 antigen-expressing cells were prepared by transiently expressing the recombinant FCRL1 antigen on 293T cells. A codon-optimized cDNA was synthesized based on the amino acid sequence of human FCRL1 (NCBI accession number: NP_443170.1) or cynomolgus monkey FCRL1 (XP_015310712), and a fragment in which the sequence of an internal ribosome entry site (IRES) derived from the encephalomyocarditis virus (EMCV) and the sequence of TagBFP were arranged in tandem was cloned into pcDNA 3.1hygro to construct an expression plasmid vector for human FCRL1 or cynomolgus monkey FCRL1. […]
(§1) Cells that transiently expressed human FCRL1 or cynomolgus monkey FCRL1 were reacted with a 3-fold dilution series of each antibody starting from 100 nM (15 μg/ml) at 12 points. Data obtained by the FCM was analyzed, and a binding amount of each antibody bound to the cell was calculated as a fluorescence amount MFI derived from the PE-labeled secondary antibody. An antibody concentration and the measured MFI were plotted with respect to a logarithm of the antibody concentration, a saturated binding curve of each antibody was obtained, and regression was performed by a 4-parameter logistic model.

Assay [2] addresses T2, human FCRL1 (NCBI accession number: NP_443170.1), transiently expressed on 293T cells (human, UniProt Q96LA6 17-429).
T2 construct: also called Fc receptor-like protein 1; CD307a
T2 sequence: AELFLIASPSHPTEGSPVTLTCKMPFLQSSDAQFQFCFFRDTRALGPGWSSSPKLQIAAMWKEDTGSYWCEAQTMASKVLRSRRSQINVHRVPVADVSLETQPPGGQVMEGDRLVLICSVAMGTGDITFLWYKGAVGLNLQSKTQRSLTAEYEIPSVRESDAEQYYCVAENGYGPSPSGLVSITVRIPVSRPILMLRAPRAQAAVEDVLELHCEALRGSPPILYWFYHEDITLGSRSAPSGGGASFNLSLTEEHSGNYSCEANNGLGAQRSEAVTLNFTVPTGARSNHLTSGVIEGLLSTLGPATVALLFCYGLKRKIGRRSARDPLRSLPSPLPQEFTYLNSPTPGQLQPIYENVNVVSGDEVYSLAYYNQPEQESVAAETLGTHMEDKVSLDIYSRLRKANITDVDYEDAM
The assay can be described thus: flow cytometry on 293T cells transiently expressing human FCRL1; apparent KD from EC50 of a 4-parameter fit. Here is the method:
An antigen-specific reactivity of the novel anti-human FCRL1 mouse antibody obtained in Example 4 was evaluated by Flow Cytometry (FCM). FCRL1 antigen-expressing cells were prepared by transiently expressing the recombinant FCRL1 antigen on 293T cells. A codon-optimized cDNA was synthesized based on the amino acid sequence of human FCRL1 (NCBI accession number: NP_443170.1) or cynomolgus monkey FCRL1 (XP_015310712), and a fragment in which the sequence of an internal ribosome entry site (IRES) derived from the encephalomyocarditis virus (EMCV) and the sequence of TagBFP were arranged in tandem was cloned into pcDNA 3.1hygro to construct an expression plasmid vector for human FCRL1 or cynomolgus monkey FCRL1. The purified expression vector was transfected into 293T cells, cells were collected 2 days after transfection, and binding with each antibody was confirmed by FCM.
As the secondary antibody, when the sample is a mouse antibody, R-Phycoerythrin (PE) F(ab′)₂ Fragment Goat Anti-Mouse IgG (H+L) (Jackson ImmunoResearch) was used, and when the sample is a human antibody or a human chimeric antibody, R-Phycoerythrin (PE) F(ab′)₂ Fragment Goat Anti-Human IgG, Fcγ Fragment Specific (Jackson ImmunoResearch) was used. A solution of each secondary antibody was prepared by diluting the stock solution 200 times with an FCM buffer. After washing once, cells in each well were suspended with 100 μL of FCM buffer, and binding to each antibody was confirmed by flow cytometry (FCM).
as §1

B1: anti-human FCRL1 mouse monoclonal antibody DK610 (antibody, V domains shown)
VH: DVLLQESGPGLVKPSQSLSLTCSVAGYSITSDYAWNWLRRFPGNRLEWMGYITYSGSTAYHPSLKGRISFTRDTSQNQVFLQLHSVTTEDSATYYCAQGGTLITTWFLRWGQGTLVTVSA
VL: DIVLTQSPASLAVSLGQRATISCRASKSVSTSDYNYMHWYRQKPGQPPKLFIYLASNLESGVPARFSGSGSGTDFTLNIHPVEEEDAATYYCQQSRELPSTFGGGTKLEIK
With B1, the binding result in assay [1] was “no binding”. Also, the Kd in assay [2] is 0.4 nM.

The values are drawn from US20250382371A1 (NATIONAL INSTITUTES OF BIOMEDICAL INNOVATION HEALTH AND …, published 2025).
